{"source": "paper PMC5443798", "about": "“Functional characterization of the meiosis-specific DNA double-strand break inducing factor SPO-11 from C. elegans”", "binders": {"B1": {"name": "80 bp dsDNA (dsDNA)", "DNA 1": "TTATGTTCATTTTTTATATCCTTTACTTTATTTTCTCTGTTTATTCATTTACTTATTTTGTATTATCCTTATCTTATTTA", "DNA 2": "TAAATAAGATAAGGATAATACAAAATAAGTAAATGAATAAACAGAGAAAATAAAGTAAAGGATATAAAAAATGAACATAA"}, "B2": {"name": "80 bp dsDNA, Cy5 (dsDNA)", "DNA 1": "TTATGTTCATTTTTTATATCCTTTACTTTATTTTCTCTGTTTATTCATTTACTTATTTTGTATTATCCTTATCTTATTTA", "DNA 2": "TAAATAAGATAAGGATAATACAAAATAAGTAAATGAATAAACAGAGAAAATAAAGTAAAGGATATAAAAAATGAACATAA", "modifications": "3'-Cy5 on strand 1"}, "B3": {"name": "100 bp dsDNA, 5'-biotin (dsDNA)", "DNA 1": "AATATGATAGATAATGATAGTGATGAGGGACGTGGATCTCTTCTTACCTGCGGAGACGTCGAGGAGAACCCAGGACCAGGGGTACCTATGGCCTCCTCCG", "DNA 2": "CGGAGGAGGCCATAGGTACCCCTGGTCCTGGGTTCTCCTCGACGTCTCCGCAGGTAAGAAGAGATCCACGTCCCTCATCACTATCATTATCTATCATATT", "modifications": "5'-biotin (strand not stated)"}, "B4": {"name": "100 bp dsDNA (dsDNA)", "DNA 1": "AATATGATAGATAATGATAGTGATGAGGGACGTGGATCTCTTCTTACCTGCGGAGACGTCGAGGAGAACCCAGGACCAGGGGTACCTATGGCCTCCTCCG", "DNA 2": "CGGAGGAGGCCATAGGTACCCCTGGTCCTGGGTTCTCCTCGACGTCTCCGCAGGTAAGAAGAGATCCACGTCCCTCATCACTATCATTATCTATCATATT"}}, "key": {"SPO-11 [1]": {"target": "T1, SPO-11 (Caenorhabditis elegans, UniProt Q22236 1-425)", "T1 sequence": "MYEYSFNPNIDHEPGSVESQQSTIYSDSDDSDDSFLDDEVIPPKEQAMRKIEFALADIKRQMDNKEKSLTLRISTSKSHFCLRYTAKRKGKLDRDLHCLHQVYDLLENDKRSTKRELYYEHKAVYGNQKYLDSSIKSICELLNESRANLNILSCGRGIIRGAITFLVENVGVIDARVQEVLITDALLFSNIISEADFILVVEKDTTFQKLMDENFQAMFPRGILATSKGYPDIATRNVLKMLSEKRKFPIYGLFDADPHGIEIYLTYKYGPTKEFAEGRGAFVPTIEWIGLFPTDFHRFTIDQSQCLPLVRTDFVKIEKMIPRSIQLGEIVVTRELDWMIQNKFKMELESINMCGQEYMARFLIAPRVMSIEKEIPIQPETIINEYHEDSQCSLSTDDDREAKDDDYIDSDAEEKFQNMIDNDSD", "experiment": "EMSA; saturated at 4.8 uM SPO-11; EMSA: 42.5 mM Tris-HCl pH 7.5, 115 mM KCl, 1 mM DTT, 0.1 mg/ml BSA, 3% glycerol, 0.15 mM EDTA, 20 C, 30 min, 300 nM DNA (10 nM plasmid), agarose gel; SPR: same", "conditions": "protein: recombinant; tags: none (His6-SUMO removed by Ulp1); blunt"}, "SPO-11 [2]": {"target": "T1, SPO-11", "experiment": "EMSA; 2.4 uM SPO-11, 300 nM DNA; EMSA: 42.5 mM Tris-HCl pH 7.5, 115 mM KCl, 1 mM DTT, 0.1 mg/ml BSA, 3% glycerol, 0.15 mM EDTA, 20 C, 30 min, 300 nM DNA (10 nM plasmid), agarose gel; SPR: same", "conditions": "protein: recombinant; tags: none (His6-SUMO removed by Ulp1); label: 3'-Cy5; blunt"}, "SPO-11 [3]": {"target": "T1, SPO-11", "experiment": "SPR; 20 C, steady-state affinity, no Mg2+; EMSA: 42.5 mM Tris-HCl pH 7.5, 115 mM KCl, 1 mM DTT, 0.1 mg/ml BSA, 3% glycerol, 0.15 mM EDTA, 20 C, 30 min, 300 nM DNA (10 nM plasmid), agarose gel; SPR: same", "conditions": "protein: recombinant; tags: none (His6-SUMO removed by Ulp1); label: 5'-biotin; blunt"}, "SPO-11 E202A": {"target": "T2, SPO-11 E202A (Caenorhabditis elegans, UniProt Q22236 1-425, E202A)", "T2 sequence": "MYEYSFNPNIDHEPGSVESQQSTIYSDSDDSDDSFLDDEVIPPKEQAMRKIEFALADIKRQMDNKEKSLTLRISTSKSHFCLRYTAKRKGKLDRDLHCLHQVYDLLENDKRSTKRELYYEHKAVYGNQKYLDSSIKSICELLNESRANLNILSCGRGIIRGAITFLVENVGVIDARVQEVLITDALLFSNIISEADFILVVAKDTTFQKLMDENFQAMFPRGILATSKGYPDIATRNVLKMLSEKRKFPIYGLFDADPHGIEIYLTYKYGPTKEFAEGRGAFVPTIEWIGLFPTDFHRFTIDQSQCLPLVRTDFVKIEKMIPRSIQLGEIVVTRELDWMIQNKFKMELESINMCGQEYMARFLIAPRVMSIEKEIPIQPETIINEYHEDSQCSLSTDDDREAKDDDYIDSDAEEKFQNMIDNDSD", "experiment": "EMSA; with Mg2+; as proficient as WT; EMSA: 42.5 mM Tris-HCl pH 7.5, 115 mM KCl, 1 mM DTT, 0.1 mg/ml BSA, 3% glycerol, 0.15 mM EDTA, 20 C, 30 min, 300 nM DNA (10 nM plasmid), agarose gel; SPR: same", "conditions": "protein: recombinant; tags: none (His6-SUMO removed by Ulp1); blunt"}, "SPO-11 E202A/D255A": {"target": "T3, SPO-11 E202A/D255A (Caenorhabditis elegans, UniProt Q22236 1-425, E202A;D255A)", "T3 sequence": "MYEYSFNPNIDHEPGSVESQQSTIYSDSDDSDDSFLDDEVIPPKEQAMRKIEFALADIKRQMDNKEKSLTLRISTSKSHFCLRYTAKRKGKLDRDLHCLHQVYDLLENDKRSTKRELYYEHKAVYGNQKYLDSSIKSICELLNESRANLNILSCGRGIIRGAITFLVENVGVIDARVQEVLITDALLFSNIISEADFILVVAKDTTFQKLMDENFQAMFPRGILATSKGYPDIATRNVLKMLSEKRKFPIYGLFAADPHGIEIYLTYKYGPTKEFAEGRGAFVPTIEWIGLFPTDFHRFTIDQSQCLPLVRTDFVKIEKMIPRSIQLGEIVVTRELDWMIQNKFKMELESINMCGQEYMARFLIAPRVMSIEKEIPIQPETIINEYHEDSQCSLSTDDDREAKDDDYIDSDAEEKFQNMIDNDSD", "experiment": "EMSA; with Mg2+; as proficient as WT; EMSA: 42.5 mM Tris-HCl pH 7.5, 115 mM KCl, 1 mM DTT, 0.1 mg/ml BSA, 3% glycerol, 0.15 mM EDTA, 20 C, 30 min, 300 nM DNA (10 nM plasmid), agarose gel; SPR: same", "conditions": "protein: recombinant; tags: none (His6-SUMO removed by Ulp1); blunt"}, "SPO-11 [4]": {"target": "T1, SPO-11", "experiment": "EMSA; 20 C, no Mg2+; EMSA: 42.5 mM Tris-HCl pH 7.5, 115 mM KCl, 1 mM DTT, 0.1 mg/ml BSA, 3% glycerol, 0.15 mM EDTA, 20 C, 30 min, 300 nM DNA (10 nM plasmid), agarose gel; SPR: same", "conditions": "protein: recombinant; tags: none (His6-SUMO removed by Ulp1); blunt"}, "SPO-11 Y118F/Y119F": {"target": "T4, SPO-11 Y118F/Y119F (Caenorhabditis elegans, UniProt Q22236 1-425, Y118F;Y119F)", "T4 sequence": "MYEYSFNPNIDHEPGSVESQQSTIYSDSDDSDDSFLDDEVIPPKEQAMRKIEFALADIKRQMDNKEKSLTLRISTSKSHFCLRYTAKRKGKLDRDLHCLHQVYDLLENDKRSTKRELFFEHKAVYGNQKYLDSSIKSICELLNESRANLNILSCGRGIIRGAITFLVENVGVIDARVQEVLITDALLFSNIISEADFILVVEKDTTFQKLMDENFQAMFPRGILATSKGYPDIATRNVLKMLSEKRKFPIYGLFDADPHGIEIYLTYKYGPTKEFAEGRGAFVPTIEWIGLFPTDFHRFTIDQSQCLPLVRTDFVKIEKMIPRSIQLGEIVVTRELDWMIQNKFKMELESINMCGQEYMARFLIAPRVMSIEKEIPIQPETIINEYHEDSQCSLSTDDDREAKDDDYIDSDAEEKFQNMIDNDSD", "experiment": "EMSA; as proficient as WT; EMSA: 42.5 mM Tris-HCl pH 7.5, 115 mM KCl, 1 mM DTT, 0.1 mg/ml BSA, 3% glycerol, 0.15 mM EDTA, 20 C, 30 min, 300 nM DNA (10 nM plasmid), agarose gel; SPR: same", "conditions": "protein: recombinant; tags: none (His6-SUMO removed by Ulp1); blunt"}, "SPO-11 Y119F": {"target": "T5, SPO-11 Y119F (Caenorhabditis elegans, UniProt Q22236 1-425, Y119F)", "T5 sequence": "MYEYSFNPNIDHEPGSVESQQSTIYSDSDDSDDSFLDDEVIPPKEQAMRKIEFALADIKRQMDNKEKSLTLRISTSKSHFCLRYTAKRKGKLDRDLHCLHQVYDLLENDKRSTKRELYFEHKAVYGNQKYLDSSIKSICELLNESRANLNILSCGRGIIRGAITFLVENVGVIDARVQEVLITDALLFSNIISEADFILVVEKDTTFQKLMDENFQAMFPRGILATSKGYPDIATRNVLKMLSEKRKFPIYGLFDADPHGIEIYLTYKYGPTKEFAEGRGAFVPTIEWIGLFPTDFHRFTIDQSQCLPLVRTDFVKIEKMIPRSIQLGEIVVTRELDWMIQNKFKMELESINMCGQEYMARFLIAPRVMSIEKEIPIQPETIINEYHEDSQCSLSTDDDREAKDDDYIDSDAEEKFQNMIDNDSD", "experiment": "EMSA; as proficient as WT; EMSA: 42.5 mM Tris-HCl pH 7.5, 115 mM KCl, 1 mM DTT, 0.1 mg/ml BSA, 3% glycerol, 0.15 mM EDTA, 20 C, 30 min, 300 nM DNA (10 nM plasmid), agarose gel; SPR: same", "conditions": "protein: recombinant; tags: none (His6-SUMO removed by Ulp1); blunt"}, "SPO-11 G290D": {"target": "T6, SPO-11 G290D (Caenorhabditis elegans, UniProt Q22236 1-425, G290D)", "T6 sequence": "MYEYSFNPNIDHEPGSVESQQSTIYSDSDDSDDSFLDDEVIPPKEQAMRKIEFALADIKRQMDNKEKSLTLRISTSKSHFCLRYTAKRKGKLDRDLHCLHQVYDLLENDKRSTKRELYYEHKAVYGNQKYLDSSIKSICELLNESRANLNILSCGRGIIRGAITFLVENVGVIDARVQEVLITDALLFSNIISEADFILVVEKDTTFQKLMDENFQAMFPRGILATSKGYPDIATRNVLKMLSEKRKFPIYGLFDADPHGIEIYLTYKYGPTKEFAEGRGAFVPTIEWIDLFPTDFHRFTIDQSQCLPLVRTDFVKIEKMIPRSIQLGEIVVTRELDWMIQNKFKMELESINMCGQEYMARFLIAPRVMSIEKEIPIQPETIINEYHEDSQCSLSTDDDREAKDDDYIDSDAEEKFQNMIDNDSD", "experiment": "EMSA; 20 C; EMSA: 42.5 mM Tris-HCl pH 7.5, 115 mM KCl, 1 mM DTT, 0.1 mg/ml BSA, 3% glycerol, 0.15 mM EDTA, 20 C, 30 min, 300 nM DNA (10 nM plasmid), agarose gel; SPR: same", "conditions": "protein: recombinant; tags: none (His6-SUMO removed by Ulp1); blunt"}}}
{"binder": "B1", "values": [{"measurement": "binding result", "setting": "SPO-11 [1]", "value": "binds"}]}
{"binder": "B2", "values": [{"measurement": "binding result", "setting": "SPO-11 [2]", "value": "binds"}]}
{"binder": "B3", "values": [{"measurement": "Kd", "setting": "SPO-11 [3]", "value": "~470", "unit": "nM"}]}
{"binder": "B4", "values": [{"measurement": "binding result", "setting": "SPO-11 E202A", "value": "binds"}, {"measurement": "binding result", "setting": "SPO-11 E202A/D255A", "value": "binds"}, {"measurement": "binding result", "setting": "SPO-11 [4]", "value": "binds"}, {"measurement": "binding result", "setting": "SPO-11 Y118F/Y119F", "value": "binds"}, {"measurement": "binding result", "setting": "SPO-11 Y119F", "value": "binds"}, {"measurement": "binding result", "setting": "SPO-11 G290D", "value": "no binding"}]}
